Starred links: 1 amine or outer side, 2 acyl side, 3 side chain; linkers in the order of their positions; H or OH if unused. Non-standard residues stand in square brackets, D forms with d. Groups on a side chain read outwards from the residue. No end group written: not given here. *: point of attachment. C18 diacid = O=C(O)CCCCCCCCCCCCCCCCC(=O)*; γGlu = O=C(O)[C@H](CCC(=O)[*:2])N[*:1]; Palmitoyl = CCCCCCCCCCCCCCCC(=O)*; AEEA = NCCOCCOCC(=O)O; Aib = CC(C)(N)C(=O)O
What follows are binders tested against human corticotropin-releasing factor 2α (CRF2 α receptor) (human), Q13324 (assay: cell-based or functional assay).
human corticotropin-releasing factor 2α (CRF2 α receptor) (human), Q13324, sequence (Q13324 20-411): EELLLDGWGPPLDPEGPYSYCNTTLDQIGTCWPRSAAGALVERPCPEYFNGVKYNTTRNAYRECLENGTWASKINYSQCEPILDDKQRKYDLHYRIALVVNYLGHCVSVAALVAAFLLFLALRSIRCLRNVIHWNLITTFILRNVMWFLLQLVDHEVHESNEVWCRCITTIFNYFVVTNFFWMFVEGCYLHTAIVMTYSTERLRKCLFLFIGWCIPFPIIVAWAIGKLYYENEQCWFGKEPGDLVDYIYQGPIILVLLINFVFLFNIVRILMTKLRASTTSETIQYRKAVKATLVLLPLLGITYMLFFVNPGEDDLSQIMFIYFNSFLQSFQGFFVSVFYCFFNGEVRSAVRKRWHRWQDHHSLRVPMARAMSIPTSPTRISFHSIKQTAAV

EC50 [nM], 0% HSA [nM] | EC50 [nM], 0.1% HSA [nM] | Binder
33.7 |  | Ac-IVLSLDVPIGLK([AEEA-AEEA-γGlu-C18 diacid])QILLEQEKQEKEKQQAETNAQILAQV-NH2 (SMILES CC[C@H](C)[C@H](NC(C)=O)C(=O)N[C@H](C(=O)N[C@@H](CC(C)C)C(=O)N[C@@H](CO)C(=O)N[C@@H](CC(C)C)C(=O)N[C@@H](CC(=O)O)C(=O)N[C@H](C(=O)N1CCC[C@H]1C(=O)N[C@H](C(=O)NCC(=O)N[C@@H](CC(C)C)C(=O)N[C@@H](CCCCNC(=O)COCCOCCNC(=O)COCCOCCNC(=O)CC[C@H](NC(=O)CCCCCCCCCCCCCCCCC(=O)O)C(=O)O)C(=O)N[C@@H](CCC(N)=O)C(=O)N[C@H](C(=O)N[C@@H](CC(C)C)C(=O)N[C@@H](CC(C)C)C(=O)N[C@@H](CCC(=O)O)C(=O)N[C@@H](CCC(N)=O)C(=O)N[C@@H](CCC(=O)O)C(=O)N[C@@H](CCCCN)C(=O)N[C@@H](CCC(N)=O)C(=O)N[C@@H](CCC(=O)O)C(=O)N[C@@H](CCCCN)C(=O)N[C@@H](CCC(=O)O)C(=O)N[C@@H](CCCCN)C(=O)N[C@@H](CCC(N)=O)C(=O)N[C@@H](CCC(N)=O)C(=O)N[C@@H](C)C(=O)N[C@@H](CCC(=O)O)C(=O)N[C@H](C(=O)N[C@@H](CC(N)=O)C(=O)N[C@@H](C)C(=O)N[C@@H](CCC(N)=O)C(=O)N[C@H](C(=O)N[C@@H](CC(C)C)C(=O)N[C@@H](C)C(=O)N[C@@H](CCC(N)=O)C(=O)N[C@H](C(N)=O)C(C)C)[C@@H](C)CC)[C@@H](C)O)[C@@H](C)CC)[C@@H](C)CC)C(C)C)C(C)C) [SEQ ID NO: 153]
0.09 | 4.94 | IVLSLDVPIKLK([AEEA-AEEA-γGlu-C18 diacid])QILLKQERQKK[Aib]REQAETNKRILERV-NH2 (N-terminus assumed; SMILES CC[C@H](C)[C@H](N)C(=O)N[C@H](C(=O)N[C@@H](CC(C)C)C(=O)N[C@@H](CO)C(=O)N[C@@H](CC(C)C)C(=O)N[C@@H](CC(=O)O)C(=O)N[C@H](C(=O)N1CCC[C@H]1C(=O)N[C@H](C(=O)N[C@@H](CCCCN)C(=O)N[C@@H](CC(C)C)C(=O)N[C@@H](CCCCNC(=O)COCCOCCNC(=O)COCCOCCNC(=O)CC[C@H](NC(=O)CCCCCCCCCCCCCCCCC(=O)O)C(=O)O)C(=O)N[C@@H](CCC(N)=O)C(=O)N[C@H](C(=O)N[C@@H](CC(C)C)C(=O)N[C@@H](CC(C)C)C(=O)N[C@@H](CCCCN)C(=O)N[C@@H](CCC(N)=O)C(=O)N[C@@H](CCC(=O)O)C(=O)N[C@@H](CCCNC(=N)N)C(=O)N[C@@H](CCC(N)=O)C(=O)N[C@@H](CCCCN)C(=O)N[C@@H](CCCCN)C(=O)NC(C)(C)C(=O)N[C@@H](CCCNC(=N)N)C(=O)N[C@@H](CCC(=O)O)C(=O)N[C@@H](CCC(N)=O)C(=O)N[C@@H](C)C(=O)N[C@@H](CCC(=O)O)C(=O)N[C@H](C(=O)N[C@@H](CC(N)=O)C(=O)N[C@@H](CCCCN)C(=O)N[C@@H](CCCNC(=N)N)C(=O)N[C@H](C(=O)N[C@@H](CC(C)C)C(=O)N[C@@H](CCC(=O)O)C(=O)N[C@@H](CCCNC(=N)N)C(=O)N[C@H](C(N)=O)C(C)C)[C@@H](C)CC)[C@@H](C)O)[C@@H](C)CC)[C@@H](C)CC)C(C)C)C(C)C) [SEQ ID NO: 152]
1.06 |  | IVLSLDVPIGLK([AEEA-AEEA-γGlu-C18 diacid])QILLKQERQKK[Aib]REQAETNAQILAQV-NH2 (N-terminus assumed; SMILES CC[C@H](C)[C@H](N)C(=O)N[C@H](C(=O)N[C@@H](CC(C)C)C(=O)N[C@@H](CO)C(=O)N[C@@H](CC(C)C)C(=O)N[C@@H](CC(=O)O)C(=O)N[C@H](C(=O)N1CCC[C@H]1C(=O)N[C@H](C(=O)NCC(=O)N[C@@H](CC(C)C)C(=O)N[C@@H](CCCCNC(=O)COCCOCCNC(=O)COCCOCCNC(=O)CC[C@H](NC(=O)CCCCCCCCCCCCCCCCC(=O)O)C(=O)O)C(=O)N[C@@H](CCC(N)=O)C(=O)N[C@H](C(=O)N[C@@H](CC(C)C)C(=O)N[C@@H](CC(C)C)C(=O)N[C@@H](CCCCN)C(=O)N[C@@H](CCC(N)=O)C(=O)N[C@@H](CCC(=O)O)C(=O)N[C@@H](CCCNC(=N)N)C(=O)N[C@@H](CCC(N)=O)C(=O)N[C@@H](CCCCN)C(=O)N[C@@H](CCCCN)C(=O)NC(C)(C)C(=O)N[C@@H](CCCNC(=N)N)C(=O)N[C@@H](CCC(=O)O)C(=O)N[C@@H](CCC(N)=O)C(=O)N[C@@H](C)C(=O)N[C@@H](CCC(=O)O)C(=O)N[C@H](C(=O)N[C@@H](CC(N)=O)C(=O)N[C@@H](C)C(=O)N[C@@H](CCC(N)=O)C(=O)N[C@H](C(=O)N[C@@H](CC(C)C)C(=O)N[C@@H](C)C(=O)N[C@@H](CCC(N)=O)C(=O)N[C@H](C(N)=O)C(C)C)[C@@H](C)CC)[C@@H](C)O)[C@@H](C)CC)[C@@H](C)CC)C(C)C)C(C)C) [SEQ ID NO: 156]
8.87 |  | IVLSLDVPIGLK([AEEA-AEEA-γGlu-C18 diacid])QILLEQEKQEKEKQQAEKNKRILERV-NH2 (N-terminus assumed; SMILES CC[C@H](C)[C@H](N)C(=O)N[C@H](C(=O)N[C@@H](CC(C)C)C(=O)N[C@@H](CO)C(=O)N[C@@H](CC(C)C)C(=O)N[C@@H](CC(=O)O)C(=O)N[C@H](C(=O)N1CCC[C@H]1C(=O)N[C@H](C(=O)NCC(=O)N[C@@H](CC(C)C)C(=O)N[C@@H](CCCCNC(=O)COCCOCCNC(=O)COCCOCCNC(=O)CC[C@H](NC(=O)CCCCCCCCCCCCCCCCC(=O)O)C(=O)O)C(=O)N[C@@H](CCC(N)=O)C(=O)N[C@H](C(=O)N[C@@H](CC(C)C)C(=O)N[C@@H](CC(C)C)C(=O)N[C@@H](CCC(=O)O)C(=O)N[C@@H](CCC(N)=O)C(=O)N[C@@H](CCC(=O)O)C(=O)N[C@@H](CCCCN)C(=O)N[C@@H](CCC(N)=O)C(=O)N[C@@H](CCC(=O)O)C(=O)N[C@@H](CCCCN)C(=O)N[C@@H](CCC(=O)O)C(=O)N[C@@H](CCCCN)C(=O)N[C@@H](CCC(N)=O)C(=O)N[C@@H](CCC(N)=O)C(=O)N[C@@H](C)C(=O)N[C@@H](CCC(=O)O)C(=O)N[C@@H](CCCCN)C(=O)N[C@@H](CC(N)=O)C(=O)N[C@@H](CCCCN)C(=O)N[C@@H](CCCNC(=N)N)C(=O)N[C@H](C(=O)N[C@@H](CC(C)C)C(=O)N[C@@H](CCC(=O)O)C(=O)N[C@@H](CCCNC(=N)N)C(=O)N[C@H](C(N)=O)C(C)C)[C@@H](C)CC)[C@@H](C)CC)[C@@H](C)CC)C(C)C)C(C)C) [SEQ ID NO: 155]
0.02 |  | IVLSLDVPIKLK([γGlu-Palmitoyl])KILLEQEKQKKQREQAETNKQILAQV-NH2 (N-terminus assumed; SMILES CCCCCCCCCCCCCCCC(=O)N[C@@H](CCC(=O)NCCCC[C@H](NC(=O)[C@H](CC(C)C)NC(=O)[C@H](CCCCN)NC(=O)[C@@H](NC(=O)[C@@H]1CCCN1C(=O)[C@@H](NC(=O)[C@H](CC(=O)O)NC(=O)[C@H](CC(C)C)NC(=O)[C@H](CO)NC(=O)[C@H](CC(C)C)NC(=O)[C@@H](NC(=O)[C@@H](N)[C@@H](C)CC)C(C)C)C(C)C)[C@@H](C)CC)C(=O)N[C@@H](CCCCN)C(=O)N[C@H](C(=O)N[C@@H](CC(C)C)C(=O)N[C@@H](CC(C)C)C(=O)N[C@@H](CCC(=O)O)C(=O)N[C@@H](CCC(N)=O)C(=O)N[C@@H](CCC(=O)O)C(=O)N[C@@H](CCCCN)C(=O)N[C@@H](CCC(N)=O)C(=O)N[C@@H](CCCCN)C(=O)N[C@@H](CCCCN)C(=O)N[C@@H](CCC(N)=O)C(=O)N[C@@H](CCCNC(=N)N)C(=O)N[C@@H](CCC(=O)O)C(=O)N[C@@H](CCC(N)=O)C(=O)N[C@@H](C)C(=O)N[C@@H](CCC(=O)O)C(=O)N[C@H](C(=O)N[C@@H](CC(N)=O)C(=O)N[C@@H](CCCCN)C(=O)N[C@@H](CCC(N)=O)C(=O)N[C@H](C(=O)N[C@@H](CC(C)C)C(=O)N[C@@H](C)C(=O)N[C@@H](CCC(N)=O)C(=O)N[C@H](C(N)=O)C(C)C)[C@@H](C)CC)[C@@H](C)O)[C@@H](C)CC)C(=O)O) [SEQ ID NO: 17]
15 | 15.3 | IVLSLDVPIGLK([AEEA-AEEA-γGlu-C18 diacid])QILLEQEKQEKEKQQAETNKRILERV-NH2 (N-terminus assumed; SMILES CC[C@H](C)[C@H](N)C(=O)N[C@H](C(=O)N[C@@H](CC(C)C)C(=O)N[C@@H](CO)C(=O)N[C@@H](CC(C)C)C(=O)N[C@@H](CC(=O)O)C(=O)N[C@H](C(=O)N1CCC[C@H]1C(=O)N[C@H](C(=O)NCC(=O)N[C@@H](CC(C)C)C(=O)N[C@@H](CCCCNC(=O)COCCOCCNC(=O)COCCOCCNC(=O)CC[C@H](NC(=O)CCCCCCCCCCCCCCCCC(=O)O)C(=O)O)C(=O)N[C@@H](CCC(N)=O)C(=O)N[C@H](C(=O)N[C@@H](CC(C)C)C(=O)N[C@@H](CC(C)C)C(=O)N[C@@H](CCC(=O)O)C(=O)N[C@@H](CCC(N)=O)C(=O)N[C@@H](CCC(=O)O)C(=O)N[C@@H](CCCCN)C(=O)N[C@@H](CCC(N)=O)C(=O)N[C@@H](CCC(=O)O)C(=O)N[C@@H](CCCCN)C(=O)N[C@@H](CCC(=O)O)C(=O)N[C@@H](CCCCN)C(=O)N[C@@H](CCC(N)=O)C(=O)N[C@@H](CCC(N)=O)C(=O)N[C@@H](C)C(=O)N[C@@H](CCC(=O)O)C(=O)N[C@H](C(=O)N[C@@H](CC(N)=O)C(=O)N[C@@H](CCCCN)C(=O)N[C@@H](CCCNC(=N)N)C(=O)N[C@H](C(=O)N[C@@H](CC(C)C)C(=O)N[C@@H](CCC(=O)O)C(=O)N[C@@H](CCCNC(=N)N)C(=O)N[C@H](C(N)=O)C(C)C)[C@@H](C)CC)[C@@H](C)O)[C@@H](C)CC)[C@@H](C)CC)C(C)C)C(C)C) [SEQ ID NO: 154]
